Measurements published in patent publication US20230310559A1, “Use of Amylase or Maltose to Treat or Prevent Neurodegeneration” (St. Jude Children's Research Hospital, Inc., priority 2020, published 2023).
Changes are numbered by the printed parent chain. Entries after “also recorded” stand apart in the source; their conditions may differ.

Assays:
[1] = test system: Huntingtin-polyQ72-GFP aggregates in the Drosophila retina; test: Analysis of pathogenic Huntingtin-polyQ72-GFP aggregation in Drosophila retina; format: in vivo; settings: transgenic overexpression in Drosophila retinas during aging, compared to controls
Protocol: (§1) Cloning of Myokines and Fly Transgenesis. The coding sequences of Drosophila CG4666, CG8093, Amyrel, Ag5r2, Amy-d, and Amy-p were generated as synthetic minigenes and cloned into the pUASTattB vector with the EcoRI and KpnI restriction enzymes. These plasmids were then injected into attP40 and/or attP2 by using the site-specific phiC31 integrase (Markstein, et al. (2008) Nat. Genet. 40(4):476-483) to generate transgenic flies.
Analysis of Pathogenic Huntingtin Aggregation. Pathogenic Huntingtin-polyQ72-GFP protein aggregates (Zhang, et al. (2010) Genetics 184(4):1165-79) were imaged with an epifluorescence microscope and the number and total area of protein aggregates estimated with CELLPROFILER™. This analysis was done with male flies after aging at 25° C. for 30 days, and/or aging at 29° C. for 20 days. A custom-made script was used for image analysis in CELLPROFILER™.
Analysis of Huntingtin-GFP Aggregates in Drosophila Eye. Frozen Drosophila was used for imaging of the eyes using ZEISS SteREO Discovery.V12 microscope at a specific exposure time and consistent settings. The acquired gray scale images were then analyzed for the area occupied by aggregates (Huntingtin-GFP specks) using CELLPROFILER™ 3.0.0 pipeline.

[2] = test system: Drosophila heads and thoraces; test: Western blots of detergent-soluble and detergent-insoluble fractions of Drosophila heads and thoraces during aging; format: in vivo
Protocol: as §1
Western Blots of Detergent-Soluble and Detergent-Insoluble Fractions. Western blots for detergent-soluble and detergent-insoluble fractions were carried out as previously described (Demontis & Perrimon (2010) Cell 143(5):813-825). In brief, heads and thoraces were dissected from 30 male flies/sample and homogenized in ice-cold PBS with 1% TRITON™ X-100 containing protease and phosphatase inhibitors. Homogenates were centrifuged at 14,000 rpm at 4° C. and supernatants collected (TRITON™ X-100-soluble fraction). The remaining pellet was washed in ice-cold PBS with 1% TRITON™ X-100. The pellet was then resuspended in RIPA buffer containing 8M urea and 5% SDS, centrifuged at 14,000 rpm at 4° C., and the supernatant collected (TRITON™ X-100-insoluble fraction). Detergent-soluble and detergent-insoluble fractions were analyzed on 4-20% SDS-PAGE with anti-ubiquitin (Cell Signaling Technologies P4D1), anti-Ref(2)P/p62 (Abcam), anti-Atg8/GABARAP (Abcam), and/or anti-GFP (Cell Signaling Technologies) antibodies. Ponceau S staining, anti-Tubulin antibodies (Cell Signaling Technologies), and/or anti-actin antibodies were used as loading controls.
Soluble and Insoluble Protein Fractionation from Drosophila Tissues. Thoraces or heads were dissected from 30 male flies and homogenized in 100 μL ice-cold TRITON™ X-100 buffer (1% TRITON™ X-100 in PBS containing protease inhibitor and phosphatase inhibitor) for 5 minutes at highest speed. Homogenates were centrifuged at 14000 rpm at 4° C. for 10 minutes and supernatant collected (TRITON™ X-100-soluble fraction). The remaining pellet was washed in 400 μL of TRITON™ X-100 buffer, twice at 14000 rpm for 5 minutes at 4° C. The pellet was then resuspended in 100 μL 1× RIPA buffer containing 8M urea and 5% SDS at room temperature, centrifuged at 14000 rpm at 4° C. for 10 minutes, and supernatant was collected (TRITON™ X-100-insoluble fraction). Six μL of soluble/insoluble protein extracts were boiled with sample buffer containing DTT and separated by gel electrophoresis.

Drosophila heads = test: Head transcriptome of flies with muscle-specific Amyrel overexpression; format: in vivo
Drosophila = test: Startle-induced negative geotaxis; format: in vivo; settings: muscle-specific overexpression, compared to isogenic controls
Protocol: Startle-Induced Negative Geotaxis. Startle-induced negative geotaxis was carried out according to established methods. Specifically, flies were tapped and the number of flies that reached the top of the vial was scored after 20 seconds.

[3] = test system: Drosophila retina with mutant tau^V337M; test: Age-related retinal degeneration induced by mutant tau V337M; format: in vivo; settings: overexpression in Drosophila
[4] = Amylase activity assay of fly body homogenates; format: in vivo, Drosophila; settings: Amyrel overexpression, in comparison with isogenic controls
Protocol: Amylase Activity Assay. Colorimetric detection of amylase activity was performed according to the manufacturer's instructions (Sigma-Aldrich). In brief, five flies were decapitated and placed on ice in a 1.5 ml tube. The decapitated bodies were homogenized in 150 μL of Amylase Assay Buffer (AAB). The homogenate was collected after high-speed centrifugation for 10 minutes. For this assay, 5 μL the body homogenate or standard was added to a well in a 96-well plate and brought up to 50 μL with AAB and water, respectively. A master reaction mix was made to conduct a colorimetric assay, and 100 μL was added to each well. The plate was mixed well using a horizontal shaker. After 2-3 minutes the absorbance was measured at 405 nm.

[5] = test system: Drosophila brains and retinas; test: Whole-mount immunostaining of Drosophila brains and retinas (poly-ubiquitin protein aggregates); format: in vivo; settings: muscle-specific overexpression with Mhc-Gal4 or Act88F-GS-Gal4, compared to isogenic controls
Protocol: Whole-Mount Immunostaining of Drosophila Brains and Retinas. The immunostaining of brains and retinas was carried out using established methods (Demontis & Perrimon (2009) Development 136(6):983-93; Demontis & Perrimon (2010) Cell 143(5):813-825). In brief, retinas and brains were dissected, fixed for 30 minutes in phosphate-buffered saline (PBS) with 4% paraformaldehyde and 0.2% TRITON⋅ X-100 at room temperature, washed for >3 times in PBS with 0.2% TRITON⋅ X-100 at room temperature, and immunostained overnight at 4° C. with rabbit anti-poly-ubiquitin (FK2; Enzo Life Sciences) and anti-Ref(2)P/p62 antibodies (Abeam). After washes with PBS with 0.2% TRITON⋅ X-100, the samples were incubated for 2 hours at room temperature with secondary antibodies and phalloidin conjugated to a fluorescent dye sold under the tradename ALEXA FLUOR® 635. The samples were subsequently washed, mounted in antifade medium and imaged on a Zeiss LSM 880 confocal microscope.

[6] = Maltose assays of fly hemolymph and bodies; format: in vivo, Drosophila; settings: Amyrel overexpression, in comparison with isogenic controls
Protocol: Maltose Assays. Flies were decapitated and placed in a perforated 0.6 mL tube resting in a 1.5 mL tube, which was centrifuged at 1700 g for 6 minutes at 4° C. to collect the hemolymph ([…], et al. (2009) Cell Metab. 10:199-207). Equal volumes of hemolymph (1 μL) were used for subsequent determination of maltose levels. To avoid interference from eye pigments (Al-Anzi, et al. (2010) PLoS ONE 5(8):e12353), flies (n=10/biological replicate) were decapitated and homogenized with a Next Advance BULLET BLENDER® and 0.5-mm zirconium beads in 100 μL of maltose assay buffer (MAB). Body homogenates were then collected after centrifugation at maximum speed for 10 minutes to remove cuticle debris. Subsequently, the quantification of maltose concentration in the hemolymph and bodies was done with the maltose assay kit (Sigma-Aldrich), according to manufacturer's instructions. In brief, hemolymph and body homogenates were diluted 1:40 in MAB. […] After 1 hour, the absorbance was read at 570 nm with a Tecan Infinite 200 Pro. Blank (0 maltose standards) readings were subtracted from all readings. Maltose levels were calculated from the standard curve after subtracting the absorbance read in the absence of glucosidase treatment, which accounts for background glucose levels, from the absorbance read in duplicate samples treated with glucosidase.

B1: Amy-d: other Drosophila amylase, transgenic overexpression (protein, UniProt P81641 19-494, looked up)
Alpha-amylase B: QFDTNYASGRSGMVHLFEWKWDDIAAECENFLGPNGYAGVQVSPVNENAVKDSRPWWERYQPISYKLETRSGNEEQFASMVKRCNAVGVRTYVDVVFNHMAADGGTYGTGGSTASPSSKSYPGVPYSSLDFNPTCAISNYNDANEVRNCELVGLRDLNQGNSYVQDKVVEFLDHLIDLGVAGFRVDAAKHMWPADLAVIYGRLKNLNTDHGFASGSKAYIVQEVIDMGGEAISKSEYTGLGAITEFRHSDSIGKVFRGKDQLQYLTNWGTAWGFAASDRSLVFVDNHDNQRGHGAGGADVLTYKVPKQYKMASAFMLAHPFGTPRVMSSFSFTDTDQGPPTTDGHNIASPIFNSDNSCSGGWVCEHRWRQIYNMVAFRNTVGSDEIQNWWDNGSNQISFSRGSRGFVAFNNDNYDLNSSLQTGLPAGTYCDVISGSKSGSSCTGKTVTVGSDGRASIYIGSSEDDGVLAIHVNAKL
Q: With B1 as the molecule, how does the “pathogenic huntingtin (Htt-Q72-GFP) aggregates, total area and number of speckles” value (“pathogenic huntingtin” for short) [1] read?
A: The value was “reduced”.

B2: Amy-p: other Drosophila amylase, transgenic overexpression (protein, UniProt P08144 19-494, looked up)
Alpha-amylase A: B1 Alpha-amylase B with Y458N
Q: For B2, which “pathogenic huntingtin” value [1] is on record?
A: The value was “reduced”.

B3: Amyrel: a secreted amylase enzyme (Drosophila myokine), GENBANK Accession No. NP_477262.1, given by transgenic overexpression (protein, UniProt O18408 20-493, looked up)
Alpha-amylase-related protein: QHNPHWWGNRNTIVHLFEWKWSDIAQECESFLGPRGFAGVQVSPVNENILSAGRPWWERYQPISYKLTTRSGNEEEFGDMVRRCNDVGVRIYVDVLLNHMSGDFDGVAVGTAGTEAEPSKKSFPGVPYTAQDFHPTCEITDWNDRFQVQQCELVGLKDLDQSSDWVRSKLIEFLDHLIELGVAGFRVDAAKHMASEDLEYIYSSLSNLNIDHGFPHNSRPFIFQEVIDHGHETVSRDEYKDLGAVTEFRFSEEIGNAFRGNNALKWLQSWGTDWGFLPSGQALTFVDNHDNQRDAGAVLNYKSPRQYKMATAFHLAYPYGISRVMSSFAFDDHDTPPPQDAQERIISPEFDADGACVNGWICEHRWRQIYAMVGFKNAVRDTEITGWWDNGDNQISFCRGNKGFLAINNNLYDLSQDLNTCLPAGTYCDVISGSLIDGSCTGKSVTVNENGYGYIHIGSDDFDGVLALHVDAKV
Q: Which “levels of polyubiquitinated proteins in heads” value ([2]; flies with pathogenic Huntingtin (Htt-polyQ120) expression in the retina, muscle-specific overexpression) does the source give for B3 here?
A: Its value is “reduced the levels of polyubiquitinated proteins”.

Q: What about the “proteostasis in skeletal muscle” value ([2]; muscle-specific overexpression) of the same molecule?
A: The value was “did not regulate proteostasis in skeletal muscle”.

Q: And the “age-related accumulation of proteasome substrates (poly-ubiquitinated proteins, detergent-insoluble fractions) in head tissues” value ([2]; muscle-specific overexpression, 10, 30 and 60 days)?
A: Its value is “reduced the age-related accumulation of proteasome substrates; also recorded: reduced the age-related increase in polyubiquitinated proteins”.

Q: What about the “Atg8 conversion and levels (autophagy)” value ([2]; muscle-specific overexpression, heads) of the same molecule?
A: The value was “not significantly modulated”.

Q: And the “induction of Hsp23 gene” value (Drosophila heads)?
A: The value was over 8 fold.

Q: What about the “genes involved in proteostasis, including several chaperones and proteases” value (Drosophila heads; compared to isogenic controls) of the same molecule?
A: Its value is “induced”.

Q: What about the “capacity for startle-induced negative geotaxis during aging” value (Drosophila) of the same molecule?
A: The value was “preserves the capacity for negative geotaxis”.

Q: And the “percentage of flies unable to respond to stimulation, increase with aging” value (Drosophila)?
A: The value was “less so”.

Q: And the “age-related neurodegeneration (retinal degeneration, rough eye phenotype) induced by tau^V337M” value [3]?
A: Its value is “largely prevented”.

Q: And the “pathogenic huntingtin” value [1]?
A: The value was “less so; also recorded: decrease in an age-dependent manner”.

Q: What about the amylase activity [4] of the same molecule?
A: The amylase activity was “increase”.

Q: What about the “amount of poly-ubiquitin protein aggregates in the retina and brain in old age” value [5] of the same molecule?
A: Its value is “significantly reduced”.

Q: What about the “circulating (hemolymph) maltose” value [6] of the same molecule?
A: The value was “increase”.

Q: And the whole body maltose [6]?
A: The whole body maltose was “increase”.
